From PMC10928113, “Molecular architecture and platelet-activating properties of small immune complexes assembled on heparin and platelet factor 4” (Communications Biology, 2024)
Values joined by “and” are separate entries in the source; they are usually repeats but may differ in a detail not shown here. Equal values may be shown once.

What was measured:
[1] = molecular target: T1, recombinant form of human platelet factor 4 (PF4) (human, UniProt P02776); test: native MS; PF4·dp20 complexes incubated with a nearly equimolar amount of KKO (0.28 mg/mL and 0.06 mg/mL); 150 mM ammonium acetate, pH 6.9; settings: both partners purified
T1 construct: platelet factor 4 (PF4), human, recombinant; stands as a tetramer in the complexes; also called recombinant PF4; PF4 tetramer

[2] = molecular target: T1, recombinant form of human platelet …; test: native MS; highest-MW SEC sub-fraction of PF4/UFH small complexes incubated with a nearly equimolar amount of KKO (antibody excess up to 33% also tested); 150 mM ammonium acetate, pH 6.9; limited charge reduction; settings: both partners purified
[3] = molecular target: the molecule itself; test: native MS; PF4 incubated with UFH, SEC sub-fractions of the small complexes; 150 mM ammonium acetate, pH 6.9; masses by limited charge reduction

Row | Binder | stoichiometry N [1] | stoichiometry N [2] | stoichiometry N [3]
1 | KKO monoclonal anti-PF4/heparin antibody (antibody, V domains shown, Whole IgG (measured 152.5 kDa); also called KKO mAb; KKO hybridoma clone 31.2.57.A7; source: KKO hybridoma clone 31.2.57.A7 (ATCC), supernatant, purified (Protein A Sepharose)) VH: VQLQQSGAELVKPGASVKLSCKASGYTFTNYFIYWVKQRPGQGLEWIGEINPRNGDTDFNEKFESRATLTVDKSSSTAYMQLSSLTSEDSAIYYCTRSPYGNNYGFTYWGQGTLVTVSA VL: DIQMIQSQKFMSTSVGDRVTVTCKASQNVGTNVAWYQQKPGQSPNALIYSASYRYSGVPDRFTGSGSGTDFTLTITNVQSEDLADYFCQQYNSYPLTFGTGTKLDLK | 1 PF4 tetramer per KKO and 2 PF4 tetramers per KKO | 1 KKO per complex of one heparin chain and two PF4 tetramers and 2 KKO per complex of one heparin chain and three PF4 tetramers | 
2 | recombinant form of human platelet factor 4 (PF4) (natural protein, platelet factor 4 (PF4), human, recombinant; stands as a tetramer in the complexes; also called recombinant PF4; PF4 tetramer) EAEEDGDLQCLCVKTTSQVRPRHITSLEVIKAGPHCPTAQLIATLKNGRKICLDLQAPLYKKIIKKLLES |  |  | 4 subunits (tetramer)
